Measured values from patent US20250034266A1.

Legend:
human CCR8 (human) [1] = target: human CCR8 (human) (UniProt P51685); test: flow cytometry on TALL-1 cells (endogenous CCR8)
[2] = target: cynomolgus CCR8 (cynomolgus) (UniProt G7NYJ2); test: FACS on HEK293-cynomolgus CCR8 cells
[3] = target: cynomolgus CCR8 (cynomolgus) (UniProt G7NYJ2); test: FACS on HEK293-cynomolgus CCR8 cells; remark: listed apart in the source
[4] = target: cynomolgus CCR8 (cynomolgus) (UniProt G7NYJ2); test: FACS on HEK293-cynomolgus CCR8 cells; remark: listed apart in the source
human CCR1 (human) = target: T1, human CCR1 (human) (UniProt P32246); test: FACS on ExpiCHO-S-human CCR1 cells
T1 sequence (looked up): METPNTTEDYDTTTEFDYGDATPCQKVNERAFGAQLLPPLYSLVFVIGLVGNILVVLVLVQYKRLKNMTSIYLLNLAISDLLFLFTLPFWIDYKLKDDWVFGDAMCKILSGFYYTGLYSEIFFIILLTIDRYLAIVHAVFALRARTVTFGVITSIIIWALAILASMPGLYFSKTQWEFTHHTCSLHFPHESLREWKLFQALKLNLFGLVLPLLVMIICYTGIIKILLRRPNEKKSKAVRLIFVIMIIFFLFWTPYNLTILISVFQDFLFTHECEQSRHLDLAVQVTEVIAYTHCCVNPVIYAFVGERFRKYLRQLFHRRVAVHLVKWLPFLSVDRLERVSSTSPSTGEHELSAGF

human CCR8 (human) [5] = target: human CCR8 (human) (UniProt P51685); test: FACS on HuT78 cells (endogenous human CCR8)
human CCR8 (human) [6] = target: human CCR8 (human) (UniProt P51685); test: FACS, competition with AF647-human CCL1 on CHO-K1-human CCR8 cells
human CCR8 (human) [7] = target: human CCR8 (human) (UniProt P51685); test: FACS on HEK293-human CCR8 cells
human CCR8 (human) [8] = target: human CCR8 (human) (UniProt P51685); test: FACS, competition with CCL1 on CHO-K1-human CCR8 cells
human CCR8 (human) [9] = target: human CCR8 (human) (UniProt P51685); test: FACS, competition with AF647-human CCL1 on CHO-K1-human CCR8 cells; remark: listed apart in the source
human CCR8 (human) [10] = target: human CCR8 (human) (UniProt P51685); test: FACS on HuT78 cells (endogenous human CCR8); remark: listed apart in the source
human CCR8 (human) [11] = target: human CCR8 (human) (UniProt P51685); test: FACS on HEK293-human CCR8 cells; remark: listed apart in the source
[12] = target: cynomolgus CCR8 (cynomolgus) (UniProt G7NYJ2); test: FACS on ExpiCHO-S-cynomolgus CCR8 cells
human CCR8 (human) [13] = target: human CCR8 (human) (UniProt P51685); test: FACS on CHO-K1-human CCR8 cells
[14] = target: cynomolgus CCR8 (cynomolgus) (UniProt G7NYJ2); test: FACS on HEK293-cynomolgus CCR8 cells; remark: listed apart in the source
human CCR8 (human) [15] = target: human CCR8 (human) (UniProt P51685); test: FACS, competition with AF647-human CCL1 on CHO-K1-human CCR8 cells; remark: listed apart in the source
human CCR8 (human) [16] = target: human CCR8 (human) (UniProt P51685); test: FACS on HEK293-human CCR8 cells; remark: listed apart in the source
human CCR8 (human) [17] = target: human CCR8 (human) (UniProt P51685); test: FACS, competition with CCL1 on CHO-K1-human CCR8 cells; remark: listed apart in the source
human CCR4 (human) = target: T2, human CCR4 (human) (UniProt P51679); test: FACS on ExpiCHO-S-human CCR4 cells
T2 sequence (looked up): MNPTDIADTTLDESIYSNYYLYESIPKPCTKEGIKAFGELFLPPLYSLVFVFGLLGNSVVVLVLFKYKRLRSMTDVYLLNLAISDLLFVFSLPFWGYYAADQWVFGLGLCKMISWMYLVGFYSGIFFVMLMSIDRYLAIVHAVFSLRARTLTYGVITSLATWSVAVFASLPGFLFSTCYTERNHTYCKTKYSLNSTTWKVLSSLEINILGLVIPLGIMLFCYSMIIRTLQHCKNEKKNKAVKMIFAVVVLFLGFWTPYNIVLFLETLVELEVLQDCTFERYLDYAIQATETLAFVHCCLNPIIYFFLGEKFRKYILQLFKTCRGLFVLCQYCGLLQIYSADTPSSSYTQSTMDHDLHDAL

human CCR8 (human) [18] = target: human CCR8 (human) (UniProt P51685); test: FACS on HEK293-human CCR8 cells; remark: listed apart in the source
human CCR8 (human) [19] = target: human CCR8 (human) (UniProt P51685); test: FACS, competition with AF647-human CCL1 on CHO-K1-human CCR8 cells; remark: listed apart in the source
[20] = target: cynomolgus CCR8 (cynomolgus) (UniProt G7NYJ2); test: FACS on HEK293-Cynomolgus CCR8 cells

Sequence of cynomolgus CCR8 (cynomolgus) (G7NYJ2 entry or part of it): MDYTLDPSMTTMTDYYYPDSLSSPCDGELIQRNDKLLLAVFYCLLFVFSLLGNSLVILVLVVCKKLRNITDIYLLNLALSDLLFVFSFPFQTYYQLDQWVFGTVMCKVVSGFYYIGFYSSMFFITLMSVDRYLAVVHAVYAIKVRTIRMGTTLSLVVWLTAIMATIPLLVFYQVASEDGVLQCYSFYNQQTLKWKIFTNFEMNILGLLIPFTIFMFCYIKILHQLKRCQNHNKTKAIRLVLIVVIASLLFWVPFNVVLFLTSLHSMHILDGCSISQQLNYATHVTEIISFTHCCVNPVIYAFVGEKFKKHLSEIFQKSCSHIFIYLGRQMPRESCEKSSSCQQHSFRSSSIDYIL
Sequence of human CCR8 (human) (P51685 whole entry): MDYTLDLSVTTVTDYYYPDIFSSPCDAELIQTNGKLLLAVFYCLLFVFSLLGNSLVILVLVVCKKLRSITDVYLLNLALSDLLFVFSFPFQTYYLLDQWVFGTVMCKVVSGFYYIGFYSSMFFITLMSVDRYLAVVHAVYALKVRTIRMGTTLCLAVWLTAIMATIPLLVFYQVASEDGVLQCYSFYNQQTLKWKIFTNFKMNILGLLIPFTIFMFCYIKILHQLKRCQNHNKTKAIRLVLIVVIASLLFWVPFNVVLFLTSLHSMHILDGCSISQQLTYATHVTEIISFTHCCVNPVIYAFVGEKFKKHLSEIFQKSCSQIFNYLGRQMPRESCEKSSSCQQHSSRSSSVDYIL

Substance | Max MFI [3] [MFI] | Max MFI [4] [MFI] | Max MFI (human CCR1 (human)) [MFI] | Max Inhibition (%) (human CCR8 (human) [6]) | Max MFI (human CCR8 (human) [7]) [MFI] | Max Inhibition (%) (human CCR8 (human) [9]) | Max MFI (human CCR8 (human) [11]) [MFI] | Max MFI [12] [MFI] | Max MFI [14] [MFI] | Max Inhibition (%) (human CCR8 (human) [15]) | Max MFI (human CCR8 (human) [16]) [MFI] | Max MFI (human CCR4 (human)) [MFI] | Max MFI (human CCR8 (human) [18]) [MFI] | other results
HuIgG1-G1m Isotype (antibody) | – | – | – | – | – | – | – | – | – | – | – | – | – | Maximum MFI (human CCR8 (human) [1]): 5.96 MFI
Human IgG1 (antibody) | 331 | 120 | 20.3 | -4.1 | 180 | -13 | 222 | 13 | 14300 | 27.4 | 167 | 7 | – | Max MFI [2]: 5690 MFI; Max MFI (human CCR8 (human) [5]): 16900 MFI; Max Inhibition (%) (human CCR8 (human) [8]): 17.8%; Max MFI (human CCR8 (human) [10]): 7820 MFI; Max MFI (human CCR8 (human) [13]): 3860 MFI; Max Inhibition (%) (human CCR8 (human) [17]): -4.58%
Mouse IgG2a (antibody) | 40 | 158 | 267 | 2.1 | 18 | -13.9 | 261 | 5 | 47 | 28.7 | 49 | 6.6 | 11 | Max Inhibition (%) (human CCR8 (human) [19]): 12.3%
Mouse IgG2a isotype control (antibody) | – | – | – | – | – | – | – | – | – | – | – | – | 349 | Max MFI [20]: 396 MFI
